The numbers were not newly measured in publication PMC6214620, which cites them from elsewhere.

The data set concerns Lys53. The conditions noted are these: ferric; His-Fe-Lys converting to a water-bound, lysine-deligated state.

For the substance “Truncated hemoglobin THB1 (Chlamydomonas reinhardtii)”, the pKa is given as ~ 6.5.
